Measurements taken from PMC9758056 (2022).

Molecular target: Taxol-stabilized microtubules from bovine tubulin, labeled with Alexa Fluor 488 and biotin, tethered to a … (bovine, UniProt Q6B856 1-445, part of the tubulin biotinylated, part labeled with Alexa Fluor 488 (10% biotin-tubulin and 10% Alexa 488-tubulin) | part of the tubulin biotinylated, part labeled with Alexa Fluor 488 (10% …))
Sequence (chain, as listed by the source, chain 1 of 2): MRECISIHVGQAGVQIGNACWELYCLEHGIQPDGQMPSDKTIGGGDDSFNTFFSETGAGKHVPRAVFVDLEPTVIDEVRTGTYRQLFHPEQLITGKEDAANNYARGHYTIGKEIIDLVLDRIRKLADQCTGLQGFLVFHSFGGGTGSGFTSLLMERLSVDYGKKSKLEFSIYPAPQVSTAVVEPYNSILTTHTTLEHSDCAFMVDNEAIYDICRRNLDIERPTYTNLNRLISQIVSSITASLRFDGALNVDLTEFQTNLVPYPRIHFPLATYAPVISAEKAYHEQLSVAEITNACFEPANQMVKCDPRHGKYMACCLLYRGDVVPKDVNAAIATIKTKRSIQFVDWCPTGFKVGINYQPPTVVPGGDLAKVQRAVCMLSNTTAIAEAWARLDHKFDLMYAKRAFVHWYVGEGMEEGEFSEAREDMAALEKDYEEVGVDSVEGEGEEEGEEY
Sequence (Q6B856 whole entry, chain 2 of 2): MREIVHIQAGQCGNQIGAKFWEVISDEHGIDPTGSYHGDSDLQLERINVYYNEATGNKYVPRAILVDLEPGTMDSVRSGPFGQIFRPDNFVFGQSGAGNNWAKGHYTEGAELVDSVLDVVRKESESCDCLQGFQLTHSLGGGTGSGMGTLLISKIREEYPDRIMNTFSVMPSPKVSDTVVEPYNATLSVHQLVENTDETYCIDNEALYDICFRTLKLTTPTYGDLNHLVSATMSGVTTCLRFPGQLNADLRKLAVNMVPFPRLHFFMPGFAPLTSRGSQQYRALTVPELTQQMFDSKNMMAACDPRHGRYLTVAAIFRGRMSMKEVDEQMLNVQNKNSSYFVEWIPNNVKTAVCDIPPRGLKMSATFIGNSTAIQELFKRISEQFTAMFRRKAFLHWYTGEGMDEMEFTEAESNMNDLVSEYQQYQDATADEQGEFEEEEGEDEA

B1: TMR-LRRK2^RCKW (LRRK2^RCKW randomly labeled with BODIPY TMR-X) (domain or fragment)
chain: KKAVPYNRMKLMIVGNTGSGKTTLLQQLMKTKKSDLGMQSATVGIDVKDWPIQIRDKRKRDLVLNVWDFAGREEFYSTHPHFMTQRALYLAVYDLSKGQAEVDAMKPWLFNIKARASSSPVILVGTHLDVSDEKQRKACMSKITKELLNKRGFPAIRDYHFVNATEESDALAKLRKTIINESLNFKIRDQLVVGQLIPDCYVELEKIILSERKNVPIEFPVIDRKRLLQLVRENQLQLDENELPHAVHFLNESGVLLHFQDPALQLSDLYFVEPKWLCKIMAQILTVKVEGCPKHPKGIISRRDVEKFLSKKRKFPKNYMSQYFKLLEKFQIALPIGEEYLLVPSSLSDHRPVIELPHCENSEIIIRLYEMPYFPMGFWSRLINRLLEISPYMLSGRERALRPNRMYWRQGIYLNWSPEAYCLVGSEVLDNHPESFLKITVPSCRKGCILLGQVVDHIDSLMEEWFPGLLEIDICGEGETLLKKWALYSFNDGEEHQKILLDDLMKKAEEGDLLVNPDQPRLTIPISQIAPDLILADLPRNIMLNNDELEFEQAPEFLLGDGSFGSVYRAAYEGEEVAVKIFNKHTSLRLLRQELVVLCHLHHPSLISLLAAGIRPRMLVMELASKGSLDRLLQQDKASLTRTLQHRIALHVADGLRYLHSAMIIYRDLKPHNVLLFTLYPNAAIIAKIADYGIAQYCCRMGIKTSEGTPGFRAPEVARGNVIYNQQADVYSFGLLLYDILTTGGRIVEGLKFPNEFDELEIQGKLPDPVKEYGCAPWPMVEKLIKQCLKENPQERPTSAQVFDILNSAELVCLTRRILLPKNVIVECMVATHHNSRNASIWLGCGHTDRGQLSFLDLNTEGYTSEEVADSRILCLALVHLPVEKESWIVSGTQSGTLLVINTEDGKKRHTLEKMTDSVTCLYCNSFSKQSKQKNFLLVGTADGKLAIFEDKTVKLKGAAPLKILNIGNVSTPLMCLSESTNSTERNVMWGGCGTKIFSFSNDFTIQKLIETRTSQLFSYAAFSDSNIITVVVDTALYIAKQNSPVVEVWDKKTEKLCGLIDCVHFLREVMVKENKESKHKMSYSGRVKTLCLQKNTALWIGTGGGHILLLDLSTRRLIRVIYNFCNSVRVMMTAQLGSLKNVMLVLGYNRKNTEGTQKQKEIQSCLTVWDINLPHEVQNLEKHIEVRKELAEKMRRTSVE
modifications: BODIPY TMR-X on primary amines, randomly labeled (dye added 1:1)
Binder B1 has a Kd of ~0.04 µM.
